The supplement of paper PMC10126150
± gives the standard deviation of the averaged measurements.

These sequences were tested on ATP (assay: switch fluorescence ratio, 500 uM ATP over buffer (Cy3 cluster intensity, sum of 5 cycles each) (fold (ratio)); higher = stronger signal-on switching upon ATP binding; sequences stand for … in TCGTCGGCAGCGTCAGATGTGTATAAGAGACAGTTTTTTTTTTTTTTTTTTTTTTTTT…TC). Settings: aptamer strand: ATP DNA aptamer (quencher-CACCTGGGGGAGTATTGCGGAGGAAGG + anchor), 100 nM annealed; ATP concentration: 500 uM.
Method in brief: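 Cy3-labelled switching-strand clusters on a modified Illumina MiSeq flow-cell were annealed to 100 nM quencher-labelled ATP aptamer and imaged first in selection buffer, then after 15 min with 500 uM ATP at 22 °C. NaOH stripping and re-annealing separated each of five buffer/ATP cycles, and clusters outside 100-1000 RFU were excluded. The fluorescence ratio sums target-cycle Cy3 intensity over buffer-cycle Cy3 intensity per cluster and averages it per switch-domain sequence.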
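Also: ATP exposure 15 min at 22 °C before imaging.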

| Sequence | switch fluorescence ratio |
| --- | --- |
| CCTGTGCGGA | 1.534 ± 0.013 |
| CCTGTGGCAC | 1.21 ± 0.054 |
| CCTGTGTAAT | 3.18 ± 0.053 |
| CCTTAAGACT | 1.07 ± 0.028 |
| CCTTAAGGCG | 1.023 ± 0.0026 |
| CCTTAATTTG | 1.007 ± 0.0089 |
| CCTTAGTTGG | 1.02 ± 0.056 |
| CCTTATGGCG | 0.996 ± 0.076 |
| CCTTATGGGA | 0.982 ± 0.026 |
| CCTTCACCTT | 1.077 ± 0.0017 |
| CCTTCCCGGG | 1.59 ± 0.0072 |
| CCTTCCTGTG | 3.62 ± 0.024 |
| CCTTCGAGG | 1.15 ± 0.2 |
| CCTTGAAGGT | 0.984 ± 0.0091 |
| CCTTGCCGGG | 1.05 ± 0.019 |
| CCTTGGGGGG | 1.03 ± 0.11 |
| CCTTGTAGGT | 1.02 ± 0.038 |
| CCTTGTATAA | 1.07 ± 0.014 |
| CCTTGTATAT | 1.077 ± 0.0083 |
| CCTTTATCGG | 0.997 ± 0.012 |
| CCTTTATGGG | 0.9952 ± 0.0095 |
| CCTTTCCGGG | 1.21 ± 0.048 |
| CCTTTCTTTT | 1.04 ± 0.049 |
| CCTTTGGATA | 1.13 ± 0.16 |
| CCTTTTAGCA | 2.07 ± 0.12 |

| Sequence | switch fluorescence ratio |
| --- | --- |
| CCTTTTAGCG | 1.16 ± 0.055 |
| CCTTTTAGTT | 0.988 ± 0.026 |
| CCTTTTATTT | 1.04 ± 0.018 |
| CCTTTTGCCA | 1.1 ± 0.028 |
| CCTTTTGGGT | 1.015 ± 0.0095 |
| CGAAAAAAAT | 1.03 ± 0.035 |
| CGAAACATGA | 1.01 ± 0.014 |
| CGAAAGGGCT | 0.989 ± 0.036 |
| CGAAATGTCC | 1.061 ± 0.002 |
| CGAAATTTGG | 1.03 ± 0.044 |
| CGAACGGGGA | 1.16 ± 0.049 |
| CGAAGAACTA | 1.023 ± 0.0028 |
| CGAAGACCAG | 1.05 ± 0.081 |
| CGAAGCGGGG | 1.08 ± 0.054 |
| CGAAGCTGGT | 1.075 ± 0.0037 |
| CGAAGGGTAA | 1.02 ± 0.028 |
| CGAAGGGTTA | 0.971 ± 0.027 |
| CGAAGTATAG | 1.37 ± 0.038 |
| CGAAGTTTGT | 0.98 ± 0.01 |
| CGAATAGTTG | 1.005 ± 0.0085 |
| CGAATGAGGT | 0.99 ± 0.04 |
| CGAATTCCGG | 1.01 ± 0.084 |
| CGAATTGGTG | 1.03 ± 0.04 |
| CGACAAGAGA | 1.47 ± 0.085 |
| CGACAATGCC | 1.29 ± 0.03 |

| Sequence | switch fluorescence ratio |
| --- | --- |
| CGACACGCTG | 1.05 ± 0.058 |
| CGACATGGTG | 1.07 ± 0.027 |
| CGACCGGGTA | 1.02 ± 0.023 |
| CGACCTACAG | 1.02 ± 0.02 |
| CGACGTGATG | 1.227 ± 0.0082 |
| CGACGTGCGG | 0.9944 ± 0.0062 |
| CGACGTTCAC | 1.96 ± 0.051 |
| CGACTCATAT | 1.52 ± 0.11 |
| CGACTCGAAA | 1.02 ± 0.016 |
| CGACTGAGGT | 1.03 ± 0.029 |
| CGACTGGAAC | 1.207 ± 0.008 |
| CGACTTACGG | 1.11 ± 0.03 |
| CGAGAAATTT | 1.01 ± 0.022 |
| CGAGAAGGGT | 0.997 ± 0.039 |
| CGAGAGTGTT | 0.995 ± 0.026 |
| CGAGATACTC | 1.86 ± 0.17 |
| CGAGATCGAC | 0.97 ± 0.012 |
| CGAGCATAGG | 1.23 ± 0.085 |
| CGAGCGTGTG | 0.9998 ± 0.0047 |
| CGAGCTGGTT | 0.991 ± 0.0027 |
| CGAGCTTGAA | 1.03 ± 0.022 |
| CGAGCTTTGA | 1.034 ± 0.0084 |
| CGAGGAGCAT | 1.01 ± 0.058 |
| CGAGGAGGGA | 0.9686 ± 0.0093 |
| CGAGGATAAA | 0.994 ± 0.027 |

| Sequence | switch fluorescence ratio |
| --- | --- |
| CGAGGATTTC | 0.9885 ± 0.0094 |
| CGAGGATTTG | 0.994 ± 0.018 |
| CGAGGCCGGG | 1.01 ± 0.015 |
| CGAGGGACCC | 1.01 ± 0.044 |
| CGAGGGAGGC | 1.011 ± 0.0095 |
| CGAGGGGCCC | 1.01 ± 0.036 |
| CGAGGGGGCT | 0.99 ± 0.02 |
| CGAGGGGTAC | 1.4 ± 0.0095 |
| CGAGGGTAGA | 1.01 ± 0.03 |
| CGAGGGTCCG | 0.99899 ± 0.00035 |
| CGAGGGTGTA | 0.999 ± 0.0014 |
| CGAGGGTTTG | 0.9968 ± 0.0032 |
| CGAGGTGGGT | 1.01 ± 0.049 |
| CGAGGTTCTG | 0.97 ± 0.039 |
| CGAGTATCTA | 0.993 ± 0.029 |
| CGAGTATTTT | 1.024 ± 0.0022 |
| CGAGTCTCGT | 1.03 ± 0.04 |
| CGAGTGGGGT | 1.01 ± 0.043 |
| CGAGTGTGGG | 1.01 ± 0.021 |
| CGAGTTTTCG | 1 ± 0.03 |
| CGATAACGGG | 1.07 ± 0.077 |
| CGATAATTTA | 1 ± 0.053 |
| CGATAGAAGT | 1.01 ± 0.016 |
| CGATAGGTTT | 1 ± 0.019 |
| CGATATCTAC | 1.06 ± 0.016 |
